This is an account of results in the supplement of paper PMC5998384.

The test system of data set [1] is HeLa Kyoto. Briefly: solubility change mitosis vs G1/S (difference of NP-40 vs SDS log2 ratios) (log2 ratio difference); higher = more soluble in mitosis.
The subject of data set [2] is HeLa Kyoto. Nature of the data set: thermal stability score vs G1/S (z-score of summed log2 fold changes over temperatures); higher = more thermally stable than in G1/S.
In data set [3] the test system is HeLa Kyoto. Briefly: melting temperature (median over replicates), in situ; higher = more thermally stable.
Data set [4] relates to HeLa Kyoto. Briefly: solubility in G1/S (NP-40 vs SDS abundance) (log2 ratio); higher = more soluble. The conditions noted are these: cell cycle stage: G1/S.
Setting [5] is: cell cycle stage: early G1 (4.5 h after nocodazole release).
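Throughout, for melting temperature (median over replicates), in situ: HeLa Kyoto cells synchronized by double thymidine or nocodazole block, proteins quantified by TMT10plex mass spectrometry, three independent biological replicates.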
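Throughout, for solubility change mitosis vs G1/S (difference of NP-40 vs SDS log2 ratios): synchronized HeLa Kyoto cells (double thymidine block for G1/S, nocodazole release for mitosis), protein amounts in NP-40 versus SDS lysates quantified by mass spectrometry, three biological replicates.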
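Throughout, for solubility in G1/S (NP-40 vs SDS abundance): HeLa Kyoto cells arrested at G1/S by double thymidine block, proteins quantified by TMT10plex mass spectrometry in mild NP-40 versus SDS extracts, three biological replicates.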
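Throughout, for thermal stability score vs G1/S (z-score of summed log2 fold changes over temperatures): synchronized HeLa Kyoto cells, proteins quantified by TMT10plex mass spectrometry, three biological replicates, mitosis taken 0.5 h after nocodazole release, G1/S directly after double thymidine block.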

Chain of AGO2 (chain, as listed by the source): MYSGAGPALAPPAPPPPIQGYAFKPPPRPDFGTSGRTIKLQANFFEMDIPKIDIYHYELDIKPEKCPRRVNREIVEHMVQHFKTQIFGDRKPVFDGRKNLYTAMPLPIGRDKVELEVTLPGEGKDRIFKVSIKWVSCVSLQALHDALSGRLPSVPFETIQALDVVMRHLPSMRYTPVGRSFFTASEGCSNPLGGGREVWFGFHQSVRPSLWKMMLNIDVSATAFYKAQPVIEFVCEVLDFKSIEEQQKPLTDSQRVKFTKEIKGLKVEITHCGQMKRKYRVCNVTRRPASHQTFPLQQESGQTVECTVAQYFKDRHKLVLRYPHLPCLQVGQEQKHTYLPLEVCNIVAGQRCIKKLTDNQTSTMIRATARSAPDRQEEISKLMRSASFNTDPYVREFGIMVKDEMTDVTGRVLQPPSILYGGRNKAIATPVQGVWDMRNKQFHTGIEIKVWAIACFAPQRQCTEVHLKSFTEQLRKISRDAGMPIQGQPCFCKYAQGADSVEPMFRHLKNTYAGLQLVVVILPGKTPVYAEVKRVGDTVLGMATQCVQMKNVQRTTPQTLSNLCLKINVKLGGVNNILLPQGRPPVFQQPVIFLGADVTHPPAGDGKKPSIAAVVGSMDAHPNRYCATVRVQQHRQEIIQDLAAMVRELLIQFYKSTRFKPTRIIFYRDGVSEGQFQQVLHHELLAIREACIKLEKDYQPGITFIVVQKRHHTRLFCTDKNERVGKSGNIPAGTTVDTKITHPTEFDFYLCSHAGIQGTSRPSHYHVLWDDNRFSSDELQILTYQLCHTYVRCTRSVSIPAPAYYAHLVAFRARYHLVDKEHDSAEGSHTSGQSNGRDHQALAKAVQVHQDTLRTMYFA

Turning to “MDFSKFLADDFDVKEWINAAFRAGSKEAASGKADGHAATLVMKLQLFIQEVNHAVEETSHQALQNMPKVLRDVEALKQEASFLKEQMILVKEDIKKFEQDTSQSMQVLVEIDQVKSRMQLAAESLQEADKWSTLSADIEETFKTQDIAVISAKLTGMQNSLMMLVDTPDYSEKCVHLEALKNRLEALASPQIVAAFTSQAVDQSKVFVKVFTEIDRMPQLLAYYYKCHKVQLLAAWQELCQSDLSLDRQLTGLYDALLGAWHTQIQWATQVFQKPHEVVMVLLIQTLGALMPSLPSCLSNGVERAGPEQELTRLLEFYDATAHFAKGLEMALLPHLHEHNLVKVTELVDAVYDPYKPYQLKYGDMEESNLLIQMSAVPLEHGEVIDCVQELSHSVNKLFGLASAAVDRCVRFTNGLGTCGLLSALKSLFAKYVSDFTSTLQSIRKKCKLDHIPPNSLFQEDWTAFQNSIRIIATCGELLRHCGDFEQQLANRILSTAGKYLSDSCSPRSLAGFQESILTDKKNSAKNPWQEYNYLQKDNPAEYASLMEILYTLKEKGSSNHNLLAAPRAALTRLNQQAHQLAFDSVFLRIKQQLLLISKMDSWNTAGIGETLTDELPAFSLTPLEYISNIGQYIMSLPLNLEPFVTQEDSALELALHAGKLPFPPEQGDELPELDNMADNWLGSIARATMQTYCDAILQIPELSPHSAKQLATDIDYLINVMDALGLQPSRTLQHIVTLLKTRPEDYRQVSKGLPRRLATTVATMRSVNY [COG7]”, the “solubility change mitosis (log2)” value with HeLa Kyoto [1] was -0.0565. Further, the values for the thermal stability score in the data set with HeLa Kyoto [2] (setting [5]) and in the data set on HeLa Kyoto [2] (cell cycle stage: mitosis) were 0.766 and 1.31, respectively. Further, the melting temperature with HeLa Kyoto [3] (cell cycle stage: G1/S) amounted to 48.8 °C; in the data set on HeLa Kyoto [3] (cell cycle stage: mitosis) it was 48.7 °C. The “solubility in G1/S (log2)” value in the data set on HeLa Kyoto [4] turned out to be 0.165.

For “MDARWWAVVVLAAFPSLGAGGETPEAPPESWTQLWFFRFVVNAAGYASFMVPGYLLVQYFRRKNYLETGRGLCFPLVKACVFGNEPKASDEVPLAPRTEAAETTPMWQALKLLFCATGLQVSYLTWGVLQERVMTRSYGATATSPGERFTDSQFLVLMNRVLALIVAGLSCVLCKQPRHGAPMYRYSFASLSNVLSSWCQYEALKFVSFPTQVLAKASKVIPVMLMGKLVSRRSYEHWEYLTATLISIGVSMFLLSSGPEPRSSPATTLSGLILLAGYIAFDSFTSNWQDALFAYKMSSVQMMFGVNFFSCLFTVGSLLEQGALLEGTRFMGRHSEFAAHALLLSICSACGQLFIFYTIGQFGAAVFTIIMTLRQAFAILLSCLLYGHTVTVVGGLGVAVVFAALLLRVYARGRLKQRGKKAVPVESPVQKV [SLC35B2]”, the “solubility change mitosis (log2)” value in the data set on HeLa Kyoto [1] was -0.177. In addition, the thermal stability score in the data set with HeLa Kyoto [2] (setting [5]) is -0.147; in the data set on HeLa Kyoto [2] (cell cycle stage: mitosis), 1.08. The melting temperature in the data set with HeLa Kyoto [3] (cell cycle stage: G1/S) was 54.9 °C; in the data set with HeLa Kyoto [3] (cell cycle stage: mitosis) it was 56.3 °C. Further, the “solubility in G1/S (log2)” value in the data set with HeLa Kyoto [4] came out at 0.112.

“MWRSCLRLRDGGRRLLNRPAGGPSASMSPGPTIPSPARAYAPPTERKRFYQNVSITQGEGGFEINLDHRKLKTPQAKLFTVPSEALAIAVATEWDSQQDTIKYYTMHLTTLCNTSLDNPTQRNKDQLIRAAVKFLDTDTICYRVEEPETLVELQRNEWDPIIEWAEKRYGVEISSSTSIMGPSIPAKTREVLVSHLASYNTWALQGIEFVAAQLKSMVLTLGLIDLRLTVEQAVLLSRLEEEYQIQKWGNIEWAHDYELQELRARTAAGTLFIHLCSESTTVKHKLLKE [ATPAF2]”: the “solubility change mitosis (log2)” value with HeLa Kyoto [1] was -0.295. The thermal stability score with HeLa Kyoto [2] (setting [5]) was -0.051; in the data set with HeLa Kyoto [2] (cell cycle stage: mitosis), -1.43. For the same substance, the figures for the melting temperature with HeLa Kyoto [3] (cell cycle stage: G1/S) and in the data set on HeLa Kyoto [3] (cell cycle stage: mitosis) were 56.8 °C and 56 °C, respectively. Besides, in the data set with HeLa Kyoto [4], the “solubility in G1/S (log2)” value is 0.104.

As for “MEDRLHMDNGLVPQKIVSVHLQDSTLKEVKDQVSNKQAQILEPKPEPSLEIKPEQDGMEHVGRDDPKALGEEPKQRRGSASGSEPAGDSDRGGGPVEHYHLHLSSCHECLELENSTIESVKFASAENIPDLPYDYSSSLESVADETSPEREGRRVNLTGKAPNILLYVGSDSQEALGRFHEVRSVLADCVDIDSYILYHLLEDSALRDPWTDNCLLLVIATRESIPEDLYQKFMAYLSQGGKVLGLSSSFTFGGFQVTSKGALHKTVQNLVFSKADQSEVKLSVLSSGCRYQEGPVRLSPGRLQGHLENEDKDRMIVHVPFGTRGGEAVLCQVHLELPPSSNIVQTPEDFNLLKSSNFRRYEVLREILTTLGLSCDMKQVPALTPLYLLSAAEEIRDPLMQWLGKHVDSEGEIKSGQLSLRFVSSYVSEVEITPSCIPVVTNMEAFSSEHFNLEIYRQNLQTKQLGKVILFAEVTPTTMRLLDGLMFQTPQEMGLIVIAARQTEGKGRGGNVWLSPVGCALSTLLISIPLRSQLGQRIPFVQHLMSVAVVEAVRSIPEYQDINLRVKWPNDIYYSDLMKIGGVLVNSTLMGETFYILIGCGFNVTNSNPTICINDLITEYNKQHKAELKPLRADYLIARVVTVLEKLIKEFQDKGPNSVLPLYYRYWVHSGQQVHLGSAEGPKVSIVGLDDSGFLQVHQEGGEVVTVHPDGNSFDMLRNLILPKRR [HLCS]”, in the data set with HeLa Kyoto [1], the “solubility change mitosis (log2)” value was -0.216. In addition, the thermal stability score with HeLa Kyoto [2] (setting [5]) was -0.0478; in the data set with HeLa Kyoto [2] (cell cycle stage: mitosis), 0.641. Further, the melting temperature with HeLa Kyoto [3] (cell cycle stage: G1/S) worked out at 50.8 °C; with HeLa Kyoto [3] (cell cycle stage: mitosis), 51 °C. In the data set with HeLa Kyoto [4], the “solubility in G1/S (log2)” value was -0.0872.

For the substance “MKVHMHTKFCLICLLTFIFHHCNHCHEEHDHGPEALHRQHRGMTELEPSKFSKQAAENEKKYYIEKLFERYGENGRLSFFGLEKLLTNLGLGERKVVEINHEDLGHDHVSHLDILAVQEGKHFHSHNHQHSHNHLNSENQTVTSVSTKRNHKCDPEKETVEVSVKSDDKHMHDHNHRLRHHHRLHHHLDHNNTHHFHNDSITPSERGEPSNEPSTETNKTQEQSDVKLPKGKRKKKGRKSNENSEVITPGFPPNHDQGEQYEHNRVHKPDRVHNPGHSHVHLPERNGHDPGRGHQDLDPDNEGELRHTRKREAPHVKNNAIISLRKDLNEDDHHHECLNVTQLLKYYGHGANSPISTDLFTYLCPALLYQIDSRLCIEHFDKLLVEDINKDKNLVPEDEANIGASAWICGIISITVISLLSLLGVILVPIINQGCFKFLLTFLVALAVGTMSGDALLHLLPHSQGGHDHSHQHAHGHGHSHGHESNKFLEEYDAVLKGLVALGGIYLLFIIEHCIRMFKHYKQQRGKQKWFMKQNTEESTIGRKLSDHKLNNTPDSDWLQLKPLAGTDDSVVSEDRLNETELTDLEGQQESPPKNYLCIEEEKIIDHSHSDGLHTIHEHDLHAAAHNHHGENKTVLRKHNHQWHHKHSHHSHGPCHSGSDLKETGIANIAWMVIMGDGIHNFSDGLAIGAAFSAGLTGGISTSIAVFCHELPHELGDFAVLLKAGMTVKQAIVYNLLSAMMAYIGMLIGTAVGQYANNITLWIFAVTAGMFLYVALVDMLPEMLHGDGDNEEHGFCPVGQFILQNLGLLFGFAIMLVIALYEDKIVFDIQF [SLC39A10]”, the “solubility change mitosis (log2)” value with HeLa Kyoto [1] was -0.0208. The thermal stability score with HeLa Kyoto [2] (setting [5]) was -2.73; in the data set on HeLa Kyoto [2] (cell cycle stage: mitosis) it was -0.381. Moreover, the melting temperature amounted to 59.3 °C with HeLa Kyoto [3] (cell cycle stage: G1/S) and 59 °C with HeLa Kyoto [3] (cell cycle stage: mitosis). Also, the “solubility in G1/S (log2)” value in the data set on HeLa Kyoto [4] was -0.0606.

Consider AGO2, for which the “solubility change mitosis (log2)” value in the data set with HeLa Kyoto [1] worked out at 0.0495. Besides, the thermal stability score is 2.34 in the data set with HeLa Kyoto [2] (setting [5]) and -0.539 in the data set on HeLa Kyoto [2] (cell cycle stage: mitosis). The melting temperature in the data set on HeLa Kyoto [3] (cell cycle stage: G1/S) was found to be 51.5 °C; in the data set on HeLa Kyoto [3] (cell cycle stage: mitosis) it was 52.6 °C. The “solubility in G1/S (log2)” value in the data set on HeLa Kyoto [4] is -0.133.
